Assay results as given in patent US20150322149A1 (Hoffmann-La Roche, published 2015).

How the values were obtained:
[1] = target: T1, recombinant mouse transferrin receptor (mTfR), extracellular domain (mouse, UniProt Q62351 89-763); test: indirect ELISA on coated recombinant mTfR extracellular domain
T1 construct: extracellular domain; Bought protein; also called murine Transferrin receptor 1
Experimental: Binding of mAb31-8D3 constructs to mouse transferrin receptor (mTfR) was assessed by indirect ELISA. To this end, recombinant mTfR (extracellular domain; Sino Biological) was coated to Maxisorb microtiter plate (Nunc) at 1 μg/mL in PBS at 4° C. overnight. After blocking in 1% Cro-tein-C/PBS (blocking buffer; Roche) for 1 h at RT and 4 washes with 0.1% Tween-20/PBS (wash buffer), mAb31-8D3 constructs were added to the wells at concentrations between 0.01 and 150 nM in blocking buffer and incubated for 1 h at RT. After 4 wash steps, constructs were detected by addition of anti-human-IgG-HRP (Jackson Immunoresearch) at 1:10,000 dilution in blocking buffer […], followed by 6 washes and incubation in TMB (Sigma). Absorbance was read out at 450 nm after stopping color development with 1 N HCl.

[2] = target: T2, Abeta(1-40), fibrillar, immobilized (UniProt P05067 672-711); test: ELISA on coated fibrillar Abeta(1-40)
T2 construct: domain: Abeta(1-40); Numbers 1-40 count on the Abeta peptide, not on the APP precursor; also called Abeta fibrils; fibrillar Abeta
Experimental: Functionality of mAb31 was confirmed by ELISA. Briefly, Abeta(1-40) was coated at 7 μg/mL in PBS onto Maxisorp plates for 3 days at 37° C. to produce fibrillar Abeta, then dried for 3 h at RT. The plate was blocked with 1% Crotein C and 0.1% RSA in PBS (blocking buffer) for 1 h at RT, then washed once with wash buffer. mAb31 constructs were added at concentrations up to 100 nM in blocking buffer and incubated at 4° C. overnight. After 4 wash steps, constructs were detected as indicated above.

T1 sequence (Q62351 89-763): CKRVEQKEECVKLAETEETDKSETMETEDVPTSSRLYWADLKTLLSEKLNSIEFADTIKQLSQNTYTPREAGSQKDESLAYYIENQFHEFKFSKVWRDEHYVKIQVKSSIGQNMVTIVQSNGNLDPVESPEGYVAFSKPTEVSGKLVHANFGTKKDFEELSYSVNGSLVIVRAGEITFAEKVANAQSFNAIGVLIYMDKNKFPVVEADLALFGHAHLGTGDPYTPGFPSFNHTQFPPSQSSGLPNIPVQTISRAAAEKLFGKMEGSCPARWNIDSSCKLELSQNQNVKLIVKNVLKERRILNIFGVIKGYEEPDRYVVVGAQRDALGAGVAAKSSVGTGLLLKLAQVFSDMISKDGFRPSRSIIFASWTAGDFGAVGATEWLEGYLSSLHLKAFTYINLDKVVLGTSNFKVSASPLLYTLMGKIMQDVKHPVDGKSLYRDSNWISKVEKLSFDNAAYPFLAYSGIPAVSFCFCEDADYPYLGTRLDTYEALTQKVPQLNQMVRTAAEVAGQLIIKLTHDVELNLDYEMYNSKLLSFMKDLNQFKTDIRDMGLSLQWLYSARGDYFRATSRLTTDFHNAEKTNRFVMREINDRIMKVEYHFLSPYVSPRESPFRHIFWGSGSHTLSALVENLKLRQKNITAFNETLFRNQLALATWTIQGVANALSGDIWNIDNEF
T2 sequence (P05067 672-711 limits assumed): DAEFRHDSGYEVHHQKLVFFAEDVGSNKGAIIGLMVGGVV

B1: mAb31 (human monoclonal antibody recognizing Abeta; INN Gantenerumab) (antibody, V domains shown)
VH: QVELVESGGGLVQPGGSLRLSCAASGFTFSSYAMSWVRQAPGKGLEWVSAINASGTRTYYADSVKGRFTISRDNSKNTLYLQMNSLRAEDTAVYYCARGKGNTHKPYGYVRYFDVWGQGTLVTVSS
VL: DIVLTQSPATLSLSPGERATLSCRASQSVSSSYLAWYQQKPGQAPRLLIYGASSRATGVPARFSGSGSGTDFTLTISSLEPEDFATYYCLQIYNMPITFGQGTKVEIKR
notes: also called anti-Aβ monoclonal antibody mAb31
B1: no binding (tested: 0.01 to 150 nM) [1]; binds [2].
